The target in assay [1] is rabbit αvβ3 receptor on rabbit smooth muscle cells (rabbit, UniProt A0A5F9DQF7 1-123). Briefly: cell-based or functional assay.
In assay [2] the target is T1, human vitronectin receptor αvβ3 purified from human placenta (human, UniProt P06756 31-1048; P05106 27-788).
T1 construct: mature; Detergent-solubilised native heterodimer; also called αvβ3 receptor; human αvβ3 protein receptor
The assay is described as follows: BIAcore; immobilized αvβ3, mAb in solution. (In SPR one partner is held on a chip, and binding of the other changes the refractive index at the surface.)
Procedure: (§1) The αᵥβ₃ was immobilized by inserting the αᵥβ₃ into a phospholipid vesicle and producing a hybrid bilayer membrane on a hydrophobic sensor surface. […] Samples of the mAbs were passed over this surface and the rates at which they bound and then dissociated from the surface were measured and analyzed using software provided with the instrument.

Assay [3] addresses T2, human αvβ3 receptor on cells or in tissue (human, UniProt P06756 31-1048; P05106 27-788). The assay is described as follows: cell-based or functional assay.
Assay [4] concerns the target T1, human vitronectin receptor αvβ3 …. Briefly: not stated ('depending on the assay employed').
Assay [5] shares this target. Briefly: BIAcore; αvβ3 in a hybrid bilayer membrane on the sensor, mAb at 100, 25, 6 nM in triplicate; αvβ3 immobilized in hybrid bilayer membrane on the sensor; mAb at 100, 25, 6 nM in triplicate.
Procedure: as §1
The target is the same in assay [6]. The assay is described as follows: BIAcore, αvβ3 immobilized in a hybrid bilayer membrane on the sensor surface, mAb in solution.
Procedure: as §1
Assay [7] addresses T2, human αvβ3 receptor on cells or in …. Briefly: method not stated; reference is the rabbit αvβ3 receptor.

T1 sequence (P06756 31-1048, form in doubt, chain 1 of 2): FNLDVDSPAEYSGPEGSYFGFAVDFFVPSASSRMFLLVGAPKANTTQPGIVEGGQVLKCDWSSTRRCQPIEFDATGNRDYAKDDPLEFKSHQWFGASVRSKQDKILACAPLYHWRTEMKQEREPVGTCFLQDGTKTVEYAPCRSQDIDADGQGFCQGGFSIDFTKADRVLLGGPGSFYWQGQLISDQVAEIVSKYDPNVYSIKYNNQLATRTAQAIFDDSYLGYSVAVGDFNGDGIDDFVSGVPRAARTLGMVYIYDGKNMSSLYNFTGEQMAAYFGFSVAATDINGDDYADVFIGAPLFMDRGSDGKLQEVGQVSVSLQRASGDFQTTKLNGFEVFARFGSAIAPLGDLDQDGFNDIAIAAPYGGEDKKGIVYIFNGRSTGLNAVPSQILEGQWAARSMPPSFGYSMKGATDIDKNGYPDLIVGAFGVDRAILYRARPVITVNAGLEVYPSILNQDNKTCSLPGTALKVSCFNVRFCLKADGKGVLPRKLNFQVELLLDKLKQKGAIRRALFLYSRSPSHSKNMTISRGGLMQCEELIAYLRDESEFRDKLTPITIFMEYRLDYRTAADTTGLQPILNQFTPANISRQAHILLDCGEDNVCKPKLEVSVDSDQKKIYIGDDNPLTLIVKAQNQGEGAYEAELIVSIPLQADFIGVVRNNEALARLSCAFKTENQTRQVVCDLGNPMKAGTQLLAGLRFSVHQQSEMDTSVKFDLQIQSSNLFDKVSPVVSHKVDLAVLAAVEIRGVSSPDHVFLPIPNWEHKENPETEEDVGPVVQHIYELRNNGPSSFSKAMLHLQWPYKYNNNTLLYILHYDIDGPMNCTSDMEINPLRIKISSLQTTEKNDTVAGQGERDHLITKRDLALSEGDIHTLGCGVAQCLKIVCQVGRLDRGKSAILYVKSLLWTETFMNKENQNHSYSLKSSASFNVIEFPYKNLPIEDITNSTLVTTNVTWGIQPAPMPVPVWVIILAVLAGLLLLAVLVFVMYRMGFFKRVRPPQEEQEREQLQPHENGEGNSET
T1 sequence (P05106 27-788, form in doubt, chain 2 of 2): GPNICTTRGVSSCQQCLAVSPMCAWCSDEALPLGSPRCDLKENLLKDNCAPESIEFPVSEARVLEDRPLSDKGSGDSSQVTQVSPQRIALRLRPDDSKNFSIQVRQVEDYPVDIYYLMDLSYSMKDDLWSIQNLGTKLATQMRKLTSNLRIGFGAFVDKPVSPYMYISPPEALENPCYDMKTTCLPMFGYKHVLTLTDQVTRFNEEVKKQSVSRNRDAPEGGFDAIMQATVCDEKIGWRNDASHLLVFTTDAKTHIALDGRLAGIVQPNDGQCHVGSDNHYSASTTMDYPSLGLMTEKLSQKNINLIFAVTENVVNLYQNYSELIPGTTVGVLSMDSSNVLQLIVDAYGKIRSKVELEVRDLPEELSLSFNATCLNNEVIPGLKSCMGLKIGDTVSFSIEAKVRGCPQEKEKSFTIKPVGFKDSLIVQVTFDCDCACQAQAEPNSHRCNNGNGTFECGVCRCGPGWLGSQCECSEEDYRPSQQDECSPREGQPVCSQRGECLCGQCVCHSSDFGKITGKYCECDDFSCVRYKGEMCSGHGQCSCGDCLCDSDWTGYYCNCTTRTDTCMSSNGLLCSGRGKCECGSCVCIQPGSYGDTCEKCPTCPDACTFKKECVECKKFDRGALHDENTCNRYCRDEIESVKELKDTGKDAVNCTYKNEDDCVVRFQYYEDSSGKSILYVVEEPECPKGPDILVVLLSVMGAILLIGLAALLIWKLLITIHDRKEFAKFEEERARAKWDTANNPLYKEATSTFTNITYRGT
T2 sequence (P06756 31-1048, chain 1 of 2): as the sequence (P06756 31-1048, form in doubt, chain 1 of 2) above
T2 sequence (P05106 27-788, chain 2 of 2): as the sequence (P05106 27-788, form in doubt, chain 2 of 2) above
rabbit αvβ3 receptor on rabbit smooth muscle cells, sequence (A0A5F9DQF7 entry or part of it): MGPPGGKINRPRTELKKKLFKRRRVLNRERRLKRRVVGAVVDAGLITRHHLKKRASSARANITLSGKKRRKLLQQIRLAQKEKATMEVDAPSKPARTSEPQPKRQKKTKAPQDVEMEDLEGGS

B1: humanized D12 antibody HZ-D12 (IgG1) (antibody, V domains shown)
VH: QVQLVQSGAEVKKPGASVKVSCKASGYAFTSYNMYWVRQAPGQGLEWIGYIDPYNGDTFYNQKFKGKATLTVDKSTSTAYMELSSLRSEDTAVYYCARQNYGSFAYWGQGTLVTVSS
VL: DIVLTQSPGTLSLSPGERATLSCRASQSISNHLHWYQQKPGQAPRLLIKYASQSISGIPSRFSGSGSGTDFTLTISRLEPEDFAVYYCQQSNSWPFTFGQGTKVEIK
notes: also called HuD12; D12HZHC 1-0 / D12HZLC 1-0
For orientation: Kd means the equilibrium constant for the complex coming apart. In the case of B1, in assay [1], the “IC50, rabbit SMC migration (% control)” value turned out to be 42 µg/mL. Further, in assay [2], the Kd is 1 nM. Besides, the “IC50 (read off the curve), adhesion of αvβ3-transfected HEK293 cells to vitronectin (O.D. 600nM)” value in assay [3] is roughly 0.1 µg/mL.

B2: humanized D12 antibody HZ-D12 (IgG4) (antibody, V domains shown)
VH: B1 VH
VL: B1 VL
In assay [2], B2 yielded a Kd of 1.1 nM.

B3: murine monoclonal antibody D12 (antibody, V domains shown)
VH: EIQLQQSGPEVVKPGASVKVSCKASGYAFTSYNMYWVKQSHGKSLEWIGYIDPYNGDTFYNQKFKGKATLTVDKSSSTAYMHLNSLTSEDSAVFYCARQNYGSFAYWGQGTLVTVSA
VL: DIVLTQSPATLSVTPGDSVSLSCRASQSISNHLHWYQQRSHESPRLLIKYASQSISGIPSRFRGSGSGTDFTLNINILETEDFGMYFCQQSNSWPFTFGSGTNLEIKR
notes: also called mAb D12; murine D12
In general, koff refers to the rate constant with which the complex falls apart. As usually defined, the kon is the second-order rate constant of association. The low end stands for slower complex formation, the high end for faster complex formation. On to B3, for which the Kd in assay [4] was 1 to 3 nM; in assay [2], 1.3 nM; in assay [5], 0.53 nM. Besides, in assay [1], the “IC50, rabbit SMC migration (% control)” value turned out to be 18 µg/mL. The molecule further returned an off-rate constant (koff) in assay [6] of 0.00041 s⁻¹. Further, the on-rate (kon) in assay [6] worked out at 770000 M⁻¹ s⁻¹. In addition, the “fold higher affinity against human αvβ3 than against the rabbit receptor” value in assay [7] was 10 fold.

Values taken from patent publication US20030152571A1 (GlaxoSmithKline, published 2003).
